Numbering of substitutions follows the chain as printed.
Legend:
[1] = biological target: Human PD-1 (monovalent antigen) (human, UniProt Q15116 25-167, limits assumed); assay: ForteBio BLI, IgG on AHQ sensor, monovalent antigen in solution
Procedure: (§1) The affinity of the PD-1 antibodies was determined by measuring their KD by ForteBio or MSD-SET. […] Briefly, ForteBio affinity measurements were performed by loading IgGs on-line onto AHQ sensors. Sensors were equilibrated off-line in assay buffer for 30 min and then monitored on-line for 60 seconds for baseline establishment. Sensors with loaded IgGs were exposed to 100 nM antigen for 5 minutes, afterwards they were transferred to assay buffer for 5 min for off-rate measurement. Kinetics were analyzed using the 1:1 binding model.

[2] = biological target: T1, Mouse PD-1 (monovalent antigen) (mouse, UniProt Q02242 25-167, limits assumed); assay: as above
T1 sequence (looked up): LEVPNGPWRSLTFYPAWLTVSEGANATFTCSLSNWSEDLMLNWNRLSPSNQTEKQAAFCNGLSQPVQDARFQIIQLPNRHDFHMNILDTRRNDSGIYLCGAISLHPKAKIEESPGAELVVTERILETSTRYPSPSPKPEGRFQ
Procedure: as §1

[3] = biological target: Human PD-1 L128A ECD-Fc-His6 (human); assay: BLI (ForteBio OctetRED96), PD-1 ECD-Fc-His6 panel; Reduced = affinity reduced >10-fold and <100-fold vs WT human PD-1
Chain of Human PD-1 L128A ECD-Fc-His6 (human) (chain, as listed by the source L128A L128A limits assumed): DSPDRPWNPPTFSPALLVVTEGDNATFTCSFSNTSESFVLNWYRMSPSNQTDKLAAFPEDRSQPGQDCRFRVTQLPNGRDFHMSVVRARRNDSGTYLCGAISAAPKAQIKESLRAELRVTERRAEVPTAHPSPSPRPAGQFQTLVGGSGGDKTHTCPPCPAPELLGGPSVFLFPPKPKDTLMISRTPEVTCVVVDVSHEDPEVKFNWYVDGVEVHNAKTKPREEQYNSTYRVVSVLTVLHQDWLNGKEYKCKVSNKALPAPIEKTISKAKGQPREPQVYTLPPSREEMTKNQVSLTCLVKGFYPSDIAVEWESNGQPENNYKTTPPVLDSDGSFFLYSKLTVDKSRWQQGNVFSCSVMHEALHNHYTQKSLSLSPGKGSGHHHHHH
Procedure: (§2) All protein interactions were assessed on a ForteBio OctetRED96 instrument. Proteins were diluted in kinetics buffer formulation (PBS +0.1% BSA, 0.02% Tween20, 0.05% sodium azide) with a sample volume was 220 μl/well. Ligand concentrations were normalized at 10 μg/ml and analyte concentrations at 100 nM. The blocking reagent was employed at a concentration of 250 μg/ml. Sensor equilibration time was set for 60 sec, and sample loading time established at 300 sec. Human Fc blocking time was set for 300 sec. Analysis of association time was set for 300 sec and dissociation time for 600 sec.

[4] = biological target: Human PD-1 I126A ECD-Fc-His6 (human); assay: as above
Chain of Human PD-1 I126A ECD-Fc-His6 (human) (chain, as listed by the source I126A I126A limits assumed): as the sequence (chain, as listed by the source L128A L128A limits assumed) above, with I101A, A103L counted along it
Procedure: as §2

[5] = biological target: T2, Human PD-1 extracellular domain (ECD)-Fc-His6 (human); assay: BLI (ForteBio OctetRED96), PD-1 ECD-Fc-His6 panel; Y = affinity within ~5-fold of WT human PD-1
T2 construct: also called Human WT PD-1 ECD-Fc fusion
T2 sequence (chain, as listed by the source limits assumed): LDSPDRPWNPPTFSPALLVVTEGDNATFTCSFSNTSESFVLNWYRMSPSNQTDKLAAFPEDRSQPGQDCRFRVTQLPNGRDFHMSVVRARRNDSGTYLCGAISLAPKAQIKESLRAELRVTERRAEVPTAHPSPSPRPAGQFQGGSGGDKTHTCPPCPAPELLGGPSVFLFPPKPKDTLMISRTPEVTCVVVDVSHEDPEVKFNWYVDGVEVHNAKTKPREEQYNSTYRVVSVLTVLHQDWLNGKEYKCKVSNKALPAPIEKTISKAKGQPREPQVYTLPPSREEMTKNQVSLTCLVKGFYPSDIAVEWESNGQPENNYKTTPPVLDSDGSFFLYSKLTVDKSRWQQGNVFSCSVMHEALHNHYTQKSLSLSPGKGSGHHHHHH
Procedure: as §2

[6] = biological target: Human PD-1 D85G/R86L ECD-Fc-His6 (human); assay: as above
Chain of Human PD-1 D85G/R86L ECD-Fc-His6 (human) (chain, as listed by the source D85G R86L D85G R86L limits assumed): as the sequence (chain, as listed by the source L128A L128A limits assumed) above, with D60G, R61L, A103L counted along it
Procedure: as §2

Mouse PD-1 ECD-Fc-His6 = biological target: T3, Mouse PD-1 ECD-Fc-His6 (mouse); assay: as above
T3 construct: also called Mouse WT PD-1 ECD-Fc fusion
Procedure: as §2

[7] = biological target: Human PD-1 R86L ECD-Fc-His6 (human); assay: as above
Chain of Human PD-1 R86L ECD-Fc-His6 (human) (chain, as listed by the source R86L R86L limits assumed): as the sequence (chain, as listed by the source L128A L128A limits assumed) above, with R61L, A103L counted along it
Procedure: as §2

[8] = biological target: Human PD-1 K78A ECD-Fc-His6 (human); assay: as above
Chain of Human PD-1 K78A ECD-Fc-His6 (human) (chain, as listed by the source K78A K78A limits assumed): as the sequence (chain, as listed by the source L128A L128A limits assumed) above, with K53A, A103L counted along it
Procedure: as §2

[9] = biological target: Rat P129H PD-1 ECD-Fc-His6 (rat); assay: as above
Chain of Rat P129H PD-1 ECD-Fc-His6 (rat) (chain, as listed by the source P129H P129H limits assumed): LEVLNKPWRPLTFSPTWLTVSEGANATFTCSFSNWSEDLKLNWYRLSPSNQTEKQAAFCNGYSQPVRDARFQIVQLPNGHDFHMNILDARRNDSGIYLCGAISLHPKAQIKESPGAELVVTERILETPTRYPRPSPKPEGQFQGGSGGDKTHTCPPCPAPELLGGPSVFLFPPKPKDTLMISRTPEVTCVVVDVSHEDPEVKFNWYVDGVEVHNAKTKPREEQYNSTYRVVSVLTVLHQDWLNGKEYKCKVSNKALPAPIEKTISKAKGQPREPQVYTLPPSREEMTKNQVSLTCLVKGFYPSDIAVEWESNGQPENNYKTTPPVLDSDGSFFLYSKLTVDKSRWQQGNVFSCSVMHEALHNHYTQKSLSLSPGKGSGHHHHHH
Procedure: as §2

[10] = biological target: T4, Cynomolgus monkey PD-1 ECD-Fc-His6 (cynomolgus monkey); assay: as above
T4 construct: also called Cyno WT PD-1 ECD-Fc fusion
T4 sequence (chain, as listed by the source limits assumed): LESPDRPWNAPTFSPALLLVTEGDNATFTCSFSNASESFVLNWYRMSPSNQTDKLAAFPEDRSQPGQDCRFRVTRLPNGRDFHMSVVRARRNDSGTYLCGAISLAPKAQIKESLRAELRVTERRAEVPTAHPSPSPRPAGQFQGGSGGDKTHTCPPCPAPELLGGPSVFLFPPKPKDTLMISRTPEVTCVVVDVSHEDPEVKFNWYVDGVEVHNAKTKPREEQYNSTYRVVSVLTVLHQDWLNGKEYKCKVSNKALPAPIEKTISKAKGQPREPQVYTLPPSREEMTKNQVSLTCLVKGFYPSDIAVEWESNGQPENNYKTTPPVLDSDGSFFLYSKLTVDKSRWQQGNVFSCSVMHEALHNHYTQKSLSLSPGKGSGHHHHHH
Procedure: as §2

[11] = biological target: T5, Human PD-1 N33-Q167 ECD-Fc-His6 (human); assay: as above
T5 construct: also called N-terminal truncated variant N33-Q167
T5 sequence (chain, as listed by the source limits assumed): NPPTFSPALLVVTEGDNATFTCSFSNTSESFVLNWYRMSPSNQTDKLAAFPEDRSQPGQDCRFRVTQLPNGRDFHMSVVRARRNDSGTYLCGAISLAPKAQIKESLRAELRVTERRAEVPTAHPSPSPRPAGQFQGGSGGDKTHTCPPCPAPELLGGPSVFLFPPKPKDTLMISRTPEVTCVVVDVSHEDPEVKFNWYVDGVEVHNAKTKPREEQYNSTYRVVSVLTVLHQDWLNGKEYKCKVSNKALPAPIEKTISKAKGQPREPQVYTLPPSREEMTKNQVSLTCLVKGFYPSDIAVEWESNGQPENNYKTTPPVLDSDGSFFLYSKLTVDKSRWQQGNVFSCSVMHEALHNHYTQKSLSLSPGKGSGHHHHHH
Procedure: as §2

[12] = biological target: Human PD-1 D85G ECD-Fc-His6 (human); assay: as above
Chain of Human PD-1 D85G ECD-Fc-His6 (human) (chain, as listed by the source D85G D85G limits assumed): as the sequence (chain, as listed by the source L128A L128A limits assumed) above, with D60G, A103L counted along it
Procedure: as §2

Chain of Human PD-1 (monovalent antigen) (Q15116 25-167 limits assumed): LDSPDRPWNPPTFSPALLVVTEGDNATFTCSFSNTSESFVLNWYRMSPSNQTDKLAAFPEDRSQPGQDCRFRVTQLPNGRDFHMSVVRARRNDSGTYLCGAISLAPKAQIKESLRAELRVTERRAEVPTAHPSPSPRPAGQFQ

B1: antibody 13406 (antibody, V domains shown)
VH: QVQLVQSGAEVKKPGASVKVSCKASGYTFDQYYMHWVRQAPGQGLEWMGIINPSGGSTAYAQKFQGRVTMTRDTSTSTVYMELSSLRSEDTAVYYCARGGTYYDYTYWGQGTLVTVSS
VL: DIQMTQSPSTLSASVGDRVTITCRASQSISSWLAWYQQKPGKAPKLLIYEASSLESGVPSRFSGSGSGTEFTLTISSLQPDDFATYYCQQYNSFPPTFGGGTKVEIK
[1]
  Kd: 3.2 nM
[2]
  Kd: 3.5 nM

B2: 13407 Fab (Fab, V domains shown)
VH: B1 VH with D30P, Q31S, S54E
VL: B1 VL
[3]
  binding result: binds
[4]
  binding result: binds
[5]
  binding result: binds
[6]
  binding result: binds
Mouse PD-1 ECD-Fc-His6
  binding result: binds
[7]
  binding result: binds
[8]
  binding result: binds
[9]
  binding result: binds
[10]
  binding result: binds
[11]
  binding result: binds
[12]
  binding result: binds

B3: antibody 13405 (antibody, V domains shown)
VH: QVQLVQSGAEVKKPGASVKVSCKASGYTFASYYMGWVRQAPGQGLEWMGIINPAGGSTAYAQKFQGRVTMTRDTSTSTVYMELSSLRSEDTAVYYCARHEYGMDVWGQGTTVTVSS
VL: B1 VL
[1]
  Kd: 73 nM
[2]
  Kd: 7.2 nM

B4: antibody 12228 (antibody, V domains shown)
VH: B1 VH with D30T, Q31S, A59S
VL: B1 VL
[1]
  Kd: 49 nM
[2]
  Kd: 6.3 nM

B5: antibody 13407 (antibody, V domains shown)
VH: B1 VH with D30P, Q31S, S54E
VL: B1 VL
[1]
  Kd: 3.9 nM
[2]
  Kd: 3.2 nM

B6: antibody 13408 (antibody, V domains shown)
VH: B1 VH with D30S, Q31D, S57V
VL: B1 VL
[1]
  Kd: 1.2 nM
[2]
  Kd: 5.3 nM

From patent US20180118829A1 (JOUNCE THERAPEUTICS, published 2018)
